Test results as given in US20230374148A1, “BINDING MOLECULES THAT MULTIMERISE CD45” (UCB BIOPHARMA SRL, priority 2020, published 2023).

How the values were obtained:
[1] = biological target: T1, human CD45 on cells (PBMC, whole blood cells, macrophages, leukaemia and lymphoma cell lines) (human, UniProt P08575 26-1306); assay: cell-based or functional assay
T1 sequence: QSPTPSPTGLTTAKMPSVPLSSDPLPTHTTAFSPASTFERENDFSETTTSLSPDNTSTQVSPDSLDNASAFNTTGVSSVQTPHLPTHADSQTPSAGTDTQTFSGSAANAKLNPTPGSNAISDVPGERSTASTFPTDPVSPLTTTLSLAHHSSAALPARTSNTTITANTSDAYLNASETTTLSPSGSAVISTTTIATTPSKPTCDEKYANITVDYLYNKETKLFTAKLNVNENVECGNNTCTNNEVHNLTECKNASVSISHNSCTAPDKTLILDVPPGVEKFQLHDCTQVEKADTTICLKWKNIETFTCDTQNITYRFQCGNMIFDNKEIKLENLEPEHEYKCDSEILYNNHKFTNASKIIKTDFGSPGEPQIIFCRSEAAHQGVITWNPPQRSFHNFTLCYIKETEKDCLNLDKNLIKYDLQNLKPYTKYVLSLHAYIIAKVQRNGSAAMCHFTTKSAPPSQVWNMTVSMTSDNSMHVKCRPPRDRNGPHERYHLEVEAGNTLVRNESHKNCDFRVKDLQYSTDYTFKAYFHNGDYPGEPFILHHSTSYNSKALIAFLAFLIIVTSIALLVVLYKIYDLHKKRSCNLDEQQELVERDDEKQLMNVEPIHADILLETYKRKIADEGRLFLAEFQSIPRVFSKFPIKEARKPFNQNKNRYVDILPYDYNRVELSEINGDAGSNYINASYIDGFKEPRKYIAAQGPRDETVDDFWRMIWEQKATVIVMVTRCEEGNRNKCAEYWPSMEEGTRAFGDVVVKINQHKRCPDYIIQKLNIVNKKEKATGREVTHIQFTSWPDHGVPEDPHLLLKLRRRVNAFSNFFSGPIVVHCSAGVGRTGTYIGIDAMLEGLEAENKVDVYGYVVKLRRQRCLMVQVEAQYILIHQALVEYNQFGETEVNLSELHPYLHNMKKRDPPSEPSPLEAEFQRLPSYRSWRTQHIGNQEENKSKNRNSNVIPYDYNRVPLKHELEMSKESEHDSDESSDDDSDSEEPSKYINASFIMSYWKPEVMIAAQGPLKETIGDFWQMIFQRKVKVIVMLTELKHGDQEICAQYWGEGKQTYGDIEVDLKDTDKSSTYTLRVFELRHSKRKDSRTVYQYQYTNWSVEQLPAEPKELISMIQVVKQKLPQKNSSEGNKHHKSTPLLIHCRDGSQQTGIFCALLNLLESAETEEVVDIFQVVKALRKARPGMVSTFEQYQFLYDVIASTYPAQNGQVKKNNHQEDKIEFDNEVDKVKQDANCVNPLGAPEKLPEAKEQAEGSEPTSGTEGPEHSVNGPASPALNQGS

[2] = biological target: T1, human CD45 on cells (PBMC, whole blood …); assay: cell-based or functional assay; remark: listed apart in the source
[3] = biological target: T1, human CD45 on cells (PBMC, whole blood …); assay: cell-based or functional assay; remark: listed apart in the source
[4] = biological target: T1, human CD45 on cells (PBMC, whole blood …); assay: cell-based or functional assay; remark: listed apart in the source
[5] = biological target: T2, CD45 domains 1-4 of the extracellular domain (UniProtKB P08575, residues 225-573) with C-terminal TEV cleavage site and 10-His tag (human); assay: sedimentation velocity analytical ultracentrifugation, molar 1:1 mixture of CD45 ECD and BYbe
[6] = biological target: T2, CD45 domains 1-4 of the extracellular domain; assay: mass photometry of the mixture of CD45 ECD and 4133-6294 BYbe, not pre-incubated [C]
[7] = biological target: T2, CD45 domains 1-4 of the extracellular domain; assay: mass of the peaks seen in the mixture of CD45 ECD and 4133-6294 BYbe in solution; theoretical mass 138 kDa
[8] = biological target: T2, CD45 domains 1-4 of the extracellular domain; assay: mass of the peaks seen in the mixture of CD45 ECD and 4133-6294 BYbe in solution; theoretical mass 276 kDa
[9] = biological target: T2, CD45 domains 1-4 of the extracellular domain; assay: mass of the peaks seen in the mixture of CD45 ECD and 4133-6294 BYbe in solution; theoretical mass 414 kDa
[10] = biological target: T2, CD45 domains 1-4 of the extracellular domain; assay: mass of the peaks seen in the mixture of CD45 ECD and 4133-6294 BYbe in solution; theoretical mass 552 kDa
[11] = biological target: T2, CD45 domains 1-4 of the extracellular domain; assay: sedimentation peaks of the mixture of CD45 ECD and 4133-6294 BYbe; stoichiometry assigned from modelled S values

B1: 4133-6294 BYbe (bispecific antibody)
heavy: QEQLVESGGGLVQPEGSLTLTCTASGFSFSGNYYMCWVRQAPGKGLEWIGCLYTGSSGSTYYASWAKGRFTISKTSSTTVTLQMTSLTAADTATYFCARDLGYEIDGYGGLWGQGTLVTVSSGQPKAPSVFPLAPCCGDTPSSTVTLGCLVKGYLPEPVTVTWNSGTLTNGVRTFPSVRQSSGLYSLSSVVSVTSSSQPVTCNVAHPATNTKVDKTVAPSTCSKPGGGGSGGGGSEVQLVESGAELARPGASVKMSCKASGYTFTSYTMHWVKQRPGQCLEWIGYINPSSGYTEYNQKFKDKTTLTADKSSSTAYLQLSSLTSEDSAVYYCARVGDGFYPSWLAYWGQGTLVTVSSGGGGSGGGGSGGGGSGGGGSDIQMTQSPKFLLVSAGDRVTITCKASQSVRNDVAWYQQKPGQSPKLLIFYASKRYTGVPDRFTGSGYGTDFTFTISTVQAEDLAVYFCQQDYSSPTTFGCGTKLEIK
light: AQVLTQTPSPVSAVVGGTVSISCQASQSVYNNNNLSWYQQKPGQPPKLLIYDASKLASGVPSRFKGSGSGTQFTLTISGVQCDDAATYYCLGGYYSSGWYFAFGGGTKVVVKRTPVAPTVLIFPPAADQVATGTVTIVCVANKYFPDVTVTWEVDGTTQTTGIENSKTPQNSADCTYNLSSTLTLTSTQYNSHKEYTCKVTQGTTSVVQSFNRGDC
EC50 of reduction of lymphocytes in PBMC, 24 h (UCB Cone-802) [1]: 0.15 nM | EC50 of reduction of lymphocytes in PBMC, 24 h (UCB Cone-811) [1]: 0.1 nM | EC50 of subset cell reduction, B cells in PBMC, 24 h [2]: 1.5 nM | EC50 of subset cell reduction, CD4+ Memory cells in PBMC, 24 h [2]: 0.222 nM | EC50 of subset cell reduction, CD4+ Naive cells in PBMC, 24 h [2]: 0.524 nM | EC50 of subset cell reduction, CD4+ cells in PBMC, 24 h [2]: 0.302 nM | EC50 of subset cell reduction, CD8+ cells in PBMC, 24 h [2]: 0.187 nM | EC50 of reduction, CD4+ cells in whole blood, 5 h, Donor 1 [3]: 0.25 nM | EC50 of reduction, CD4+ cells in whole blood, 5 h, Donor 2 [3]: 0.33 nM | EC50 of reduction, total lymphocytes in whole blood, 5 h, Donor 1 [3]: 0.37 nM | EC50 of reduction, total lymphocytes in whole blood, 5 h, Donor 2 [3]: 5.99 nM | EC50 of % cell reduction, CCRF-SB cells, 21 h [4]: 0.308 nM | EC50 of % cell reduction, Dakiki cells, 21 h [4]: 0.309 nM | EC50 of % cell reduction, Jurkat cells, 21 h [4]: 0.117 nM | EC50 of % cell reduction, MC116 cells, 21 h [4]: 0.005 nM | EC50 of % cell reduction, NU-DUL-1 cells, 21 h [4]: 0.497 nM | EC50 of % cell reduction, OCI-Ly3 cells, 21 h [4]: 0.349 nM | EC50 of % cell reduction, Raji cells, 21 h [4]: 0.397 nM | EC50 of % cell reduction, Ramos cells, 21 h [4]: 0.14 nM | EC50 of % cell reduction, SU-DHL-4 cells, 21 h [4]: 0.141 nM | EC50 of % cell reduction, SU-DHL-5 cells, 21 h [4]: 0.043 nM | EC50 of % cell reduction, SU-DHL-8 cells, 21 h [4]: 1.46 nM | EC50 of % cell reduction, THP-1 cells, 21 h [4]: 1.54 nM | Percentage of area under the curve (CD45 1:1 BYbe complex) [5]: 12% | Percentage of area under the curve (CD45 2:2 BYbe complex) [5]: 37.7% | Percentage of area under the curve (CD45 3:3 BYbe complex) [5]: 35.7% | Percentage of area under the curve (CD45 4:4 BYbe complex) [5]: 3.46% | Percentage of area under the curve (unbound CD45 in the 1:1 mixture) [5]: 9.21% | counts in the peak at 75 kDa (arrow from the BYbe schematic; unbound BYbe according to the text) [6]: 3830 counts | counts in the peak at 136 kDa, complex marked (1x) [6]: 3060 counts | counts in the peak at 274 kDa, complex marked (2x) [6]: 3510 counts | counts in the peak at 415 kDa, complex marked (3x) [6]: 464 counts | counts in the peak at 555 kDa, complex marked (4x) [6]: 137 counts | percent of counts in the peak at 75 kDa (arrow from the BYbe schematic; unbound BYbe according to the text) [6]: 31% | percent of counts in the peak at 136 kDa, complex marked (1x) [6]: 24% | percent of counts in the peak at 274 kDa, complex marked (2x) [6]: 28% | percent of counts in the peak at 415 kDa, complex marked (3x) [6]: 4% | percent of counts in the peak at 555 kDa, complex marked (4x) [6]: 1% | observed mass of the complex 1× (CD45 + BYbe) [7]: 136 kDa | observed mass of the complex 2× (CD45 + BYbe) [8]: 274 kDa | observed mass of the complex 3× (CD45 + BYbe) [9]: 415 kDa | observed mass of the complex 4× (CD45 + BYbe) [10]: 555 kDa | experimental S value of the complex CD45 1:1 BYbe [11]: 6.9 S | experimental S value of the complex CD45 2:1 BYbe [11]: 7.15 S | experimental S value of the complex CD45 2:2 BYbe [11]: 8.78 S | experimental S value of the complex CD45 3:3 BYbe [11]: 10 S | experimental S value of the complex CD45 4:3 BYbe [11]: 11.1 S | experimental S value of the complex CD45 4:4 BYbe [11]: 13.3 S
